Patent US11976099B2, “Compositions and methods for treatment of bone associated diseases” (THE NATIONAL INSTITUTE FOR BIOTECHNOLOGY IN THE NEGEV LTD., priority 2016, dated 2024)

B1: M-CSFM: 158 amino acid M-CSF with cysteine at position 31 replaced by serine (SEQ ID NO: 2) (protein)
chain: EEVSEYCSHMIGSGHLQSLQRLIDSQMETSSQITFEFVDQEQLKDPVCYLKKAFLLVQDIMEDTMRFRDNTPNAIAIVQLQELSLRLKSCFTKDYEEHDKACVRTFYETPLQLLEKVKNVFNETKNLLDKDWNIFSKNCNNSFAECSSQGHERQSEGS
B2: 5.6: bispecific M-CSFRGD variant from sort five; M-CSFM loop replaced by XXXRGDXXX motif; binds c-FMS and αvβ3 integrin (protein)
chain: EEVSEYCSHMIGSGHLQSLQRLIDTYPRGDMCSITFEFVDQEQLKDPVCYLKKAFLLVQDIMEDTMRFRDNTPNAIAIVQLQELSLRLKSCFTKDYEEHDKACVRTFYETPLQLLEKVKNVFNETKNLLDKDWNIFSKNCNNSFAECSSQGHERQSEGS
modifications: left off: small tags and cut ends

Key:
αvβ3 integrin = αvβ3 integrin (Homo sapiens, UniProt P05106+P06756); assay: SPR binding of purified proteins to αvβ3 integrin; details: proteins immobilized; integrin 0-200 nM; equilibrium
Sequence of αvβ3 integrin (P06756 31-992 limits assumed): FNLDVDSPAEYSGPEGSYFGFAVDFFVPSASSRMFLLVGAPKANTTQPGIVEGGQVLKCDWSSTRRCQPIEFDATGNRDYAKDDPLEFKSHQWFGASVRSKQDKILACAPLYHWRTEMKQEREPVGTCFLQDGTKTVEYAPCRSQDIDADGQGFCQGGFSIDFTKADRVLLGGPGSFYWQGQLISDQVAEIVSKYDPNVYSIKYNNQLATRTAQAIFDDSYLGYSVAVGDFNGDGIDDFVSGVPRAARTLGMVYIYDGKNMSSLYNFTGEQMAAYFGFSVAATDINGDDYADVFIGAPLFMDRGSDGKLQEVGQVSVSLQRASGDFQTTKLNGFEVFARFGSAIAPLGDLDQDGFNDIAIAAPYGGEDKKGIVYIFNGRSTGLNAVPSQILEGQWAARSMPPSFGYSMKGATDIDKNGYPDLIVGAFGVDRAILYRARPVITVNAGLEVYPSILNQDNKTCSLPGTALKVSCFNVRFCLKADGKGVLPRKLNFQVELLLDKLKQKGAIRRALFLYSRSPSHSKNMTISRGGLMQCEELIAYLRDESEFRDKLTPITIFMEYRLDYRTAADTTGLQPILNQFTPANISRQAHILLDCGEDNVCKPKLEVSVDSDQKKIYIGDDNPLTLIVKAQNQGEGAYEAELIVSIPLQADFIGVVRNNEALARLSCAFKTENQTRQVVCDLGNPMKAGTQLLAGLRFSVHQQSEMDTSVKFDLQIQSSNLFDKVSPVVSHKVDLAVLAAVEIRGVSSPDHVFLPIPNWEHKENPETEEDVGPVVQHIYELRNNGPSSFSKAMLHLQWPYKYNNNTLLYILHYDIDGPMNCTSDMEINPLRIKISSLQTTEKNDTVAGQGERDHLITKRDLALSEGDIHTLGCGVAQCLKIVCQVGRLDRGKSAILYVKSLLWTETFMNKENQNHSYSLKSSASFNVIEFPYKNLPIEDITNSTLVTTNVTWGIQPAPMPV
Sequence of αvβ3 integrin (P05106 27-718 limits assumed): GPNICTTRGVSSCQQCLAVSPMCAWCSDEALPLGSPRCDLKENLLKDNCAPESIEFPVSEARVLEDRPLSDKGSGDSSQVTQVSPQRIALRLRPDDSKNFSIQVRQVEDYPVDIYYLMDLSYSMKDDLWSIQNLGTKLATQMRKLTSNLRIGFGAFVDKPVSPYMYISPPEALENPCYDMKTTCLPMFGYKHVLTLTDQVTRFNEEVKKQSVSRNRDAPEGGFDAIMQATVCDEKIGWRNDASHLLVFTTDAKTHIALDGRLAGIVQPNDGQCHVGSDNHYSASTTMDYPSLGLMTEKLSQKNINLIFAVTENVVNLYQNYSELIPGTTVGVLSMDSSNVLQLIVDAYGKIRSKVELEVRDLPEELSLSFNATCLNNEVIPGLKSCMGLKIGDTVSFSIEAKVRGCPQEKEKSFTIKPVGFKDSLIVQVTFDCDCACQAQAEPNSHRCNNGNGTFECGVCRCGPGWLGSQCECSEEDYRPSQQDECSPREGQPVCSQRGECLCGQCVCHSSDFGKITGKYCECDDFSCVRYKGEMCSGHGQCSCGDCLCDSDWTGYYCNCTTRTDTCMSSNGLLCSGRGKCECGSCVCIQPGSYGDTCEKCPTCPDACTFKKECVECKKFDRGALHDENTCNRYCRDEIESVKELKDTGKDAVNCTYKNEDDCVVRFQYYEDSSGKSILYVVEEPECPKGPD
Procedure: Determination of binding of the soluble purified proteins (M-CSFM and M-CSFRGD variants) to c-FMS and αvβ3 integrin was performed on a ProteOn XPR36 (Bio-Rad, USA). […] Unbound esters were deactivated with 1 M ethanolamine HCl at pH 8.5, and the temperature was set at 25° C. Then, the chip was rotated, and the human c-FMS soluble proteins (Sino Biological, China) were allowed to flow over the chip at 6 different concentrations (0, 12.5, 25, 50, 100 and 200 nM) at a flow rate of 50 μl/min for 490 s, followed by dissociation for 600 s in PBS+0.005% Tween (PBST). For determining αvβ3 integrin binding, the chip was regenerated using 50 mM NaOH at a flow rate of 100 μl/min and analyzed again for c-FMS binding to make sure that the chip had been regenerated. After making sure the chip is regenerated, and different concentrations of […] proteins (0, 12.5, 25, 50, 100 and 200 nM) were allowed to flow over the chip. The interactions obtained were normalized to the initial protein binding RUs to the chip surface. Then, for each concentration, the KD was obtained from the equilibrium binding phase of the sensorgram. To determine the αvβ3 integrin specificity for each M-CSFRGD variant, a new chip was loaded with different RGD binding integrins, as follows: 8.5 μg of α3β1, 8.5 μg of α4β7, 6 μg of α5β1, 8.5 μg of αvβ5, and 8.5 μg of αvβ3 integrin and 3 μg of BSA as a negative control. […]

c-FMS and αvβ3 integrin = assay: YSD binding of M-CSFRGD variants to c-FMS and αvβ3 integrin, alone and simultaneously; design: species or system human
Procedure: For expressing the M-CSFM gene and the two M-CSFRGD libraries on the yeast surface, the SDCAA medium was replaced by SGCAA medium (2% galactose, 0.67% yeast nitrogen base, 0.5% bacto casamino acids, 1.47% sodium citrate, 0.429% citric acid monohydrate) and the yeasts were incubated overnight at 30° C. until the culture reached OD600=10.0 (10^8 cells per ml). A number of cells equal to ten times the library size was added to 1 ml of PBS containing 1% bovine serum albumin (PBSA); the suspension was centrifuged, and the supernatant was removed. For binding analysis of M-CSFM and the M-CSFRGD libraries to c-FMS, yeast cells were incubated with mouse anti c-myc antibody, 9E10 (Abcam, Cambridge, MA, USA) in a 1:50 ratio and different concentrations of soluble Fc conjugated human c-FMS (R&D systems, USA) for 1 h at room temperature. […]
To identify the high αvβ3 integrin and c-FMS binders, 25 different clones from sort 4 and 25 different clones from sort 5 were tested for binding to 20 nM of αvβ3 integrin, as described in the flow cytometry sorting section. […] To determine the binding specificity to other RGD binding integrins, namely α4β7, […], α5β1 and αvβ5 (BioLegend, USA), the three chosen M-CSFRGD variants (4.22, 4.24 and 5.6) were analyzed for binding to 250 nM of each integrin. […]

Row | Molecule | KD to αvβ3 integrin (αvβ3 integrin) | relative affinity for c-FMS and αvβ3 integrin (c-FMS and αvβ3 integrin) | simultaneous binding of c-FMS and αvβ3 integrin (c-FMS and αvβ3 integrin; data not shown)
1 | B1 | did not bind | – | –
2 | B2 | – | higher affinity for c-FMS than for αvβ3 integrin | could simultaneously bind c-FMS and αvβ3 integrin
